Results taken from paper PMC10491584, “Structural convergence endows nuclear transport receptor Kap114p with a transcriptional repressor function toward TATA-binding protein” (Nature Communications, 2023).
Positions count from the first letter of the chain named.

Key:
Kap114p (Y370A) = molecular target: T1, Kap114p (Y370A) (S. cerevisiae, UniProt P53067 1-1004, Y370A); test: ITC; MicroCal iTC200, 25 °C, 20 mM HEPES pH 7.4, 150 mM NaCl; high concentration: 50 µM wild type or mutant Kap114p in the sample cell, 500 µM wild type or mutant yTBPC in the syringe; triplicate; details: both partners purified
T1 construct: Kap114p, S. cerevisiae, full length with Y370A; also called GST-Kap114p (Y370A); source: E. coli Rosetta, purified (GST resin, MonoQ, Superdex 200)
T1 sequence (looked up): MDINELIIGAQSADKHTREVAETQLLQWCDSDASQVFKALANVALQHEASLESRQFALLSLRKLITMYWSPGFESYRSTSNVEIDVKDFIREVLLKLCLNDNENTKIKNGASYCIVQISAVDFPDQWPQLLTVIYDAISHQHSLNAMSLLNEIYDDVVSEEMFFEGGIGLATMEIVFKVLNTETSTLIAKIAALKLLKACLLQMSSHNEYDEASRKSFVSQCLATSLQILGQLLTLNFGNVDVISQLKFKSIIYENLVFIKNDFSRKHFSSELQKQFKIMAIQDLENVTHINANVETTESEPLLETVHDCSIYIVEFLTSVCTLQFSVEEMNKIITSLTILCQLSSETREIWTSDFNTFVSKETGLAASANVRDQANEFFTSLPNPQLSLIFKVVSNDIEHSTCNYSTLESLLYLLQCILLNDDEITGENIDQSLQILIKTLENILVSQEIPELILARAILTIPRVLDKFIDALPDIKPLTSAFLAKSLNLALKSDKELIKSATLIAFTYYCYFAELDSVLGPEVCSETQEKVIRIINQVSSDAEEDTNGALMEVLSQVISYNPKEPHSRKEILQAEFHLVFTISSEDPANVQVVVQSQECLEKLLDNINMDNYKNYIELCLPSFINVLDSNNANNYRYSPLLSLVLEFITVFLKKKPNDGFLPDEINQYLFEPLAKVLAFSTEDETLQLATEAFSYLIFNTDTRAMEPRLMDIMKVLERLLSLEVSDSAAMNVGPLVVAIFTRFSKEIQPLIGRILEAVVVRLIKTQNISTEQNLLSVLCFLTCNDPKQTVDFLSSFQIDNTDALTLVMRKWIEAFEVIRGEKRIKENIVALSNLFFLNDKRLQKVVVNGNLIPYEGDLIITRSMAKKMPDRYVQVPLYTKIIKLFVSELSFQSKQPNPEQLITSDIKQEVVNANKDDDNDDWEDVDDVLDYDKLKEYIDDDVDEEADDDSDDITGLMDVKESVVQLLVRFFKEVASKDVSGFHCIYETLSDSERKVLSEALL

Kap114p (Q597A) = molecular target: T2, Kap114p (Q597A) (S. cerevisiae, UniProt P53067 1-1004, Q597A); test: as above; details: both partners purified
T2 construct: Kap114p, S. cerevisiae, full length with Q597A; also called GST-Kap114p (Q597); source: E. coli Rosetta, purified (GST resin, MonoQ, Superdex 200)
T2 sequence (looked up): T1 sequence (looked up) with A370Y, Q597A

Kd (Kap114p (Y370A)): 20 nM | Kd (Kap114p (Q597A)): 7.4 nM
B1: yTBP^C wild type (core domain of yeast TATA-box binding protein, a.a. 61-240) (domain or fragment, S. cerevisiae, UniProt P13393 61-240, looked up)
chain: SGIVPTLQNIVATVTLGCRLDLKTVALHARNAEYNPKRFAAVIMRIREPKTTALIFASGKMVVTGAKSEDDSKLASRKYARIIQKIGFAAKFTDFKIQNIVGSCDVKFPIRLEGLAFSHGTFSSYEPELFPGLIYRMVKPKIVLLIFVSGKIVLTGAKQREEIYQAFEAIYPVLSEFRKM
notes: modified pET28a, 6xHis tag followed by a PreScission site; also called yTBPC WT; His-yTBP (61-240); source: E. coli Rosetta, purified (Ni-NTA, HiTrap SP, Superdex 75); not shown: His6, N-terminal, cleaved
